Experimental data from paper PMC11047111 (Proceedings of the National Academy of Sciences of the …, 2024).

Legend:
SEC = target: the molecule itself; experiment: SEC
[1] = target: CUL3^NTD (N-terminal domain of cullin 3, residues 1 to 381) (UniProt Q13618 1-381); experiment: BLI
CUL3^NTD (N-terminal domain of cullin 3, residues 1 to 381), sequence (Q13618 1-381): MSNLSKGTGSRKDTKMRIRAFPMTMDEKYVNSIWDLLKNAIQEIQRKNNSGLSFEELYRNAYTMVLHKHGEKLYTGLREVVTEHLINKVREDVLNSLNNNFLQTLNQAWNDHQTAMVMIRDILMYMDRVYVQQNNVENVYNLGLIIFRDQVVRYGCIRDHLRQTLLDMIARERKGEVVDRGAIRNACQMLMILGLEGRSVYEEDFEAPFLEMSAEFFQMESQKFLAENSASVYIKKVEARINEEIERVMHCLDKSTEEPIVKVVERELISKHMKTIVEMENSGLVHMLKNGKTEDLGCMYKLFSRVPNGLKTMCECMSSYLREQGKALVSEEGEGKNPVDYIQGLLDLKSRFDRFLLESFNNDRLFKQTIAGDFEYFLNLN

Binder | stoichiometry N (SEC) | binding result [1]
KCTD5 (natural protein) MAENHCELLSPARGGIGAGLGGGLCRRCSAGLGALAQRPGSVSKWVRLNVGGTYFLTTRQTLCRDPKSFLYRLCQADPDLDSDKDETGAYLIDRDPTYFGPVLNYLRHGKLVINKDLAEEGVLEEAEFYNITSLIKLVKDKIRERDSKTSQVPVKHVYRVLQCQEEELTQMVSTMSDGWKFEQLVSIGSSYNYGNEDQAEFLCVVSKELHNTPYGTASEPSEKAKILQERGSRM | 5 | –
KCTD5 L161R (natural protein) MAENHCELLSPARGGIGAGLGGGLCRRCSAGLGALAQRPGSVSKWVRLNVGGTYFLTTRQTLCRDPKSFLYRLCQADPDLDSDKDETGAYLIDRDPTYFGPVLNYLRHGKLVINKDLAEEGVLEEAEFYNITSLIKLVKDKIRERDSKTSQVPVKHVYRVRQCQEEELTQMVSTMSDGWKFEQLVSIGSSYNYGNEDQAEFLCVVSKELHNTPYGTASEPSEKAKILQERGSRM | – | binds
